Data reported in publication PMC7709125, “Bringing the Heavy Chain to Light: Creating a Symmetric, Bivalent IgG-Like Bispecific” (Antibodies, 2020).

Target: T1, 5FV2 soluble VH domain targeting human VEGF (human)
T1 construct: also called anti-hVEGF VH domain; phage-derived VH domain 5FV2
Test: SPR
Details: both partners purified

T1 sequence (heavy, as listed by the source): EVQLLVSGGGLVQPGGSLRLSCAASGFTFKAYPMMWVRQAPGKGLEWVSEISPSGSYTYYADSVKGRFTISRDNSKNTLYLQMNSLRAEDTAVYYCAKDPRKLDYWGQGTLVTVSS

Kd: 3 nM
kon: 730000 M⁻¹ s⁻¹
B1: human vascular endothelial growth factor (VEGF) (ligand, UniProt P15692 1-395, looked up)
chain: APMAEGGGQNHHEVVKFMDVYQRSYCHPIETLVDIFQEYPDEIEYIFKPSCVPLMRCGGCCNDEGLECVPTEESNITMQIMRIKPHQGQHIGEMSFLQHNKCECRPKKDRARQENPCGPCSERRKHLFVQDPQTCKCSCKNTDSRCKARQLELNERTCRCDKPRR
notes: also called hVEGF; human VEGF; source: commercially available antigen
